B1: single-chain phage antibody SC03-012 (scFv)
scFv: AMAQVQLVQSGAEVKKPGASVKVSCKASGYTFTSYGISWVRQAPGQGLEWMGWISAYNGNTNYAQKLQGRVTMTTDTSTSTAYMELSSLRSDDTAVYYCARMFRKSSFDSWGQGTLVTVSRGGGGSGGGGSGGGGSSELTQDPAVSVALGQTVRITCQGDSLRSYYASWYQQKPGQAPVLVIYGKNNRPSGIPDRFSGSSSGNTASLTITGAQAEDEADYYCNSRDSSGNHVVFGGGTKLTVLGAAA
B2: single-chain phage antibody SC03-015 (scFv)
scFv: AMAEVQLVESGGGVVRPGGSLRLSCAASGFTFDDYGMSWVRQAPGKGLEWVSGINWNGGSTGYADSVKGRFTISRDNAKNSLYLQMNSLRAEDTAVYYCARGLSLRPWGQGTLVTVSRGGGGSGGGGSGGGGSSELTQDPAVSVALGQTVRITCQGDSLRSYYASWYQQKPGQAPVLVIYGKNNRPSGIPDRFSGSSSGNTASLTITGAQAEDEADYYCNSRDSSGNHVVFGGGTKLTVLGAAA
B3: single-chain phage antibody SC03-006 (scFv)
scFv: SMAEVQLVESGGGLVQPGGSLRLSCAASGFTFSGYPMHWVRQAPGKGLEWVAVISYDGSNKYYADSVKGRFTISRDNSKNTLYLQMNSLRAEDTAVYYCAKDGSPRTPSFDYWGQGTLVTVLEGTGGSGGTGSGTGTSELDIQMTQSPHSLSASVGDRVTITCRASQGISNYLAWYQQKPGKVPKLLIYAASTLQSGVPSRFSGSGSGTDFTLTISSLQPEDVGVYYCQQRFRTPVTFGQGTKLEIKRAAA

This assay deals with inactivated SARS-CoV preparation (Frankfurt 1 strain), gamma-irradiated.
Take B1: the OD492 nm is 0.495 OD492 nm.

The molecule B2 returned an OD492 nm of 0.796 OD492 nm.

Regarding B3, the OD492 nm came out at 1.06 OD492 nm.
